Assays:
[1] = molecular target: hMPV B2 F (human metapneumovirus); assay: BLI, Fab in solution, His-tagged hMPV B2 F on anti-penta-HIS sensors
[2] = molecular target: hMPV B2 F (human metapneumovirus)
[3] = molecular target: hMPV 130-BV (human metapneumovirus); assay: BLI, Fab in solution, hMPV 130-BV on anti-penta-HIS sensors
[4] = molecular target: hMPV 130-BV (human metapneumovirus); assay: biolayer interferometry, hMPV 130-BV on anti-penta-HIS biosensors; unit inferred

B1: MPV364 Fab (Fab, V domains shown)
VH: QVQLVQSGAEVKKPGASVKVSCKASGYTFTHDSIHWVRQAPGQRLEWMGWINVGNGDTKSSQKFQDRLTITRDTSANTAYMEVRSLKYEDTAMYFCARVDQYCIGGVCYGGKNWFDPWGQGTLVTVSS
VL: SYELNQPPSVSVAPGQTAMITCGGYYVGVKSLHWYQQKAGQAPVLVVHDDSDRPSGIPERFSGSKSGDTATLIISRVEAGDEADYYCQVWDRDSDHPYVFGTGTTVTVL
- fold KD against MPV196 and MPV314 [1]: 10 fold
- Kd [2]: 70 nM
- koff [2]: 0.0038 s⁻¹
- kon [2]: 61000 M⁻¹ s⁻¹

B2: MPV314 Fab (Fab, V domains shown)
VH: QVQLVQSGGGVVQPGRSLRLSCAASGFSFSDYGMDWVRQAPGKGLEWVAVISYDGSNQYYADSVKGRFTVSRDNSKNTVYLQMNSLRAEDTAVYFCAKDESRRYYYSSGIHSHWGQGTLVTVSS
VL: DIVMTQSPATLSVSPGERATLSCRASQSVSRNLAWYQQKPGQAPRLLIFGASTRATGIPARFSGSASGTEFTLTISSLQSEDFAVYYCHQYNYWPPGTFGQGTRLEIK
- Kd [2]: 4.4 nM
- koff [2]: 0.0027 s⁻¹
- kon [2]: 630000 M⁻¹ s⁻¹

B3: MPV196 Fab (Fab, V domains shown)
VH: QVQLQQWGAGLLKPSETLSLTCAVYGGSFSGYSWTWIRQPPGKGLEWIGEINHSGSTNYNPSLKSRVTISIDTSRNQFSLKLISVTAADTAVYYCARGVRGGYNLWHFDVWGQGTLVTVSS
VL: SYELSQSPSVSVSPGQTARITCSGDKLGNKYASWYQQKPGQSPVLVIYQDDKRPSGIPERFSGSNSGNTATLTIGGTQAMDEADYSCQAWDGRTAVVFGGGTKLTVL
- Kd [2]: 7.3 nM
- koff [2]: 0.003 s⁻¹
- kon [2]: 410000 M⁻¹ s⁻¹

B4: MPV458 Fab (Fab, V domains shown)
VH: QGKLVESGGGVIQPGRSLRLSCAASGFDFSRYGLHWVRQAPGKGLEWVAVIVYAGSNKYYADSVKGRFTISKDNSKNTMHLQMSDLRTEDTAVYYCARDQAFDLWGQGTMVTVSS
VL: DIQMTQSPASLSASVGDRVTITCQASQGISRSVNWYQQKPGKAPKLLIFDASHLERGVPSRFSGSGYGTDFTFTISSLQPEDIATYYCQQYDNLRISFGQGTRLEIK
- KD difference in logs against 101F Fab [3]: 3 logs
- Kd [4]: 0.075 nM

Source: patent publication US20230085439A1
